Measurements: article PMC2099194 (The Journal of Cell Biology, 2007)
Like-named read-outs stand apart in the source and are kept apart here. One block for each molecule: values may come before it.

Key:
[1] = target: F-actin (rabbit skeletal muscle actin) (rabbit) (UniProt P68135); test: co-sedimentation
[2] = target: FLAG-tagged full-length FLNa (human) (UniProt P21333); test: rotary-shadowing electron microscopy
[3] = target: F-actin (rabbit skeletal muscle actin) (rabbit) (UniProt P68135); test: co-sedimentation; remark: listed apart in the source
[4] = target: His-ABD-IgFLNa1-8+24 (human) (UniProt P21333); test: rotary-shadowing electron microscopy
[5] = target: His-ABD-IgFLNa8-15+24 (human) (UniProt P21333); test: rotary-shadowing electron microscopy
[6] = target: His-ABD-IgFLNa16-24 (human) (UniProt P21333); test: rotary-shadowing electron microscopy
His-IgFLNa1-8+24 (human) = test: rotary-shadowing electron microscopy
[7] = target: His-IgFLNa8-15+24 (human); test: rotary-shadowing electron microscopy
His-IgFLNa16-24 (human) = test: rotary-shadowing electron microscopy
[8] = target: full-length FLNa lacking hinge 1 (human) (UniProt P21333); test: rotary-shadowing electron microscopy
[9] = target: full-length FLNa lacking hinge 2 (human) (UniProt P21333); test: rotary-shadowing electron microscopy
[10] = target: recombinant human filamin A (FLNa), full length (human) (UniProt P21333); test: rotary-shadowing electron microscopy
[11] = target: FLAG-tagged full-length FLNa (human, UniProt P21333 1-2647); test: pull-down

Kd [1]: 11.8 µM | stoichiometry N (ratio to actin, mol/mol) [1]: 1.3
Molecule: ABD-IgFLNa1-2 (domain or fragment)

Kd [1]: 7.5 µM | stoichiometry N (ratio to actin, mol/mol) [1]: 1.7
Molecule: ABD-IgFLNa1-4 (domain or fragment)

Kd [1]: 0.67 µM | stoichiometry N (ratio to actin, mol/mol) [1]: 5.4
Molecule: ABD-IgFLNa1-15 (domain or fragment)

Kd [1]: 0.31 µM | stoichiometry N (ratio to actin, mol/mol) [1]: 12
Molecule: ABD-IgFLNa1-23 (domain or fragment)

Kd [1]: 7.1 µM | stoichiometry N (ratio to actin, mol/mol) [1]: 1.8
Molecule: FLAG-ABD-IgFLNa1-8 (domain or fragment)

Molecule: FLAG-tagged full-length FLNa, P21333 1-2647
stoichiometry N [2]: 2

percent bound of total input [3]: 11.7% | Kd [1]: 17 µM | percent bound of total input [1]: 8.7% | stoichiometry N (ratio to actin, mol/mol) [1]: 1
Molecule: FLNa ABD (F-actin binding domain alone) (domain or fragment)

Molecule: His-ABD-IgFLNa1-8+24 (from UniProt P21333 1-278) (domain or fragment)
stoichiometry N [4]: 2

Molecule: His-ABD-IgFLNa8-15+24 (from UniProt P21333 1-278) (domain or fragment)
stoichiometry N [5]: 2

Molecule: His-ABD-IgFLNa16-24 (from UniProt P21333 1-278) (domain or fragment)
stoichiometry N [6]: 2

Molecule: His-IgFLNa1-8+24 (domain or fragment)
stoichiometry N (His-IgFLNa1-8+24 (human)): 2

Molecule: His-IgFLNa8-15+24 (domain or fragment)
stoichiometry N [7]: 2

Molecule: His-IgFLNa16-24 (domain or fragment)
stoichiometry N (His-IgFLNa16-24 (human)): 2

Molecule: full-length FLNa lacking hinge 1 (from UniProt P21333 1-2647) (natural protein)
stoichiometry N [8]: 2

Molecule: full-length FLNa lacking hinge 2 (from UniProt P21333 1-2647) (natural protein)
stoichiometry N [9]: 2

Molecule: recombinant human filamin A (FLNa), full length, P21333 1-2647
percent bound of total input [3]: 83.6% | KD of the high avidity site (apparent, two independent site model) [1]: 0.017 µM | KD of the low affinity site (apparent, two independent site model) [1]: 0.22 µM | percent bound of total input [1]: 56.3% | stoichiometry N [10]: 2

binding result [11]: binds
B1: full-length human recombinant FilGAP (natural protein, UniProt Q8N264 1-748, looked up)
chain: MEENNDSTENPQQGQGRQNAIKCGWLRKQGGFVKTWHTRWFVLKGDQLYYFKDEDETKPLGTIFLPGNKVSEHPCNEENPGKFLFEVVPGGDRDRMTANHESYLLMASTQNDMEDWVKSIRRVIWGPFGGGIFGQKLEDTVRYEKRYGNRLAPMLVEQCVDFIRQRGLKEEGLFRLPGQANLVKELQDAFDCGEKPSFDSNTDVHTVASLLKLYLRELPEPVIPYAKYEDFLSCAKLLSKEEEAGVKELAKQVKSLPVVNYNLLKYICRFLDEVQSYSGVNKMSVQNLATVFGPNILRPKVEDPLTIMEGTVVVQQLMSVMISKHDCLFPKDAELQSKPQDGVSNNNEIQKKATMGQLQNKENNNTKDSPSRQCSWDKSESPQRSSMNNGSPTALSGSKTNSPKNSVHKLDVSRSPPLMVKKNPAFNKGSGIVTNGSFSSSNAEGLEKTQTTPNGSLQARRSSSLKVSGTKMGTHSVQNGTVRMGILNSDTLGNPTNVRNMSWLPNGYVTLRDNKQKEQAGELGQHNRLSTYDNVHQQFSMMNLDDKQSIDSATWSTSSCEISLPENSNSCRSSTTTCPEQDFFGGNFEDPVLDGPPQDDLSHPRDYESKSDHRSVGGRSSRATSSSDNSETFVGNSSSNHSALHSLVSSLKQEMTKQKIEYESRIKSLEQRNLTLETEMMSLHDELDQERKKFTMIEIKMRNAERAKEDAEKRNDMLQKEMEQFFSTFGELTVEPRRTERGNTIWIQ
